From US4125375A, “Separation of solid and liquid components of mixtures” (National Research Development Corporation, priority 1975, dated 1978) come the findings set out here.

In the test the test system is antibody to BTG coupled to Sepharose 4B. Briefly: Radioimmunoassay for platelet β thromboglobulin (BTG), Sepharose 4B-coupled antibody separated by sucrose layering. It is filed as binding. The procedure:
After primary incubation with ^125 I BTG, 1 ml aliquots of standard BTG of known concentrations in the range from 0.2 to 25.6 µg/ml are incubated in 75 × 17 mm sample tubes with an antibody to BTG coupled to Sepharose 4B. After incubation the Sepharose 4B and supernatant are separated by the method of the invention as follows.
1 ml of diluent is added to each sample tube followed by 6 ml of 10% w/v sucrose in water. The sucrose solution is added over a period of about 15 seconds through a stainless steel probe by means of a peristaltic pump. The outlet of the probe is positioned about 0.5 cm from the bottom of the sample tube, and the sucrose solution forms a discrete layer beneath the incubate. In this way the sucrose addition is carried out in a substantially non-turbulent manner. The sample tubes are then left to stand for about 60 minutes during which time the Sepharose 4B together with bound BTG settles out of the incubate into the sucrose solution forming a deposit at the bottom of each tube.
Each sample tube, in turn, is then placed in an auto-γ counter (Wallac Instruments Ltd) modified as shown in FIG. 1 and counted for a period of 49.9 seconds (this being the period required to yield 10,000 counts from the total amount of ^125 I-BTG added to each tube). The sample tubes are then left to stand for a further 16 hours, and each sample tube is again counted. The results obtained are given in Table I, dividing the counts obtained by 100 giving the results in terms of the percentage of the total ^125 I-BTG which has been bound in each case.
With reference to FIG. 1 the γ-counter has a well type detector into which the sample tube 1 enters. The detector is modified by placing a 2.5 cm length of plastic tube 2 in the bottom of the well and adding an annular disc 3 of lead screening material beneath customary annular plastic disc spill shield 4. In such an arrangement the source which is to be counted, the bound ^125 I BTG linked to the deposit of Sepharose 4B 5 at the bottom of the tube 1, is well within the detector. The free ^125 I BTG present in the 2 ml layer of aqueous incubate 6 is separated from the detector by the intervening 6 ml layer 7 of 10% w/v sucrose solution, and also the detector is shielded to a large extent against stray radiation from the free fraction by the disc 3 of lead screening material. For all intents and purposes the detector "sees" only radiation from the bound and not from the free fraction.

Setting [1] is: 0 μg standard BTG, A after 1 hr. standing.
Where [2] appears, read: 0 μg standard BTG, B after 17 hrs. standing.
[3] abbreviates: Controls without antibody, A after 1 hr. standing.
The mark [4] stands for this setting: Controls without antibody, B after 17 hrs. standing.
The mark [5] stands for this setting: 0.2 μg standard BTG, A after 1 hr. standing.
[6] abbreviates: 0.2 μg standard BTG, B after 17 hrs. standing.
Setting [7] is: 0.4 μg standard BTG, A after 1 hr. standing.
[8] abbreviates: 0.4 μg standard BTG, B after 17 hrs. standing.
The mark [9] stands for this setting: 0.8 μg standard BTG, A after 1 hr. standing.
Setting [10] is: 0.8 μg standard BTG, B after 17 hrs. standing.
Where [11] appears, read: 1.6 μg standard BTG, A after 1 hr. standing.
The mark [12] stands for this setting: 1.6 μg standard BTG, B after 17 hrs. standing.
Where [13] appears, read: 3.2 μg standard BTG, A after 1 hr. standing.
Setting [14] is: 3.2 μg standard BTG, B after 17 hrs. standing.
Setting [15] is: 6.4 μg standard BTG, A after 1 hr. standing.
Where [16] appears, read: 6.4 μg standard BTG, B after 17 hrs. standing.
The mark [17] stands for this setting: 12.8 μg standard BTG, A after 1 hr. standing.
[18] abbreviates: 12.8 μg standard BTG, B after 17 hrs. standing.
Where [19] appears, read: 25.6 μg standard BTG, A after 1 hr. standing.
Where [20] appears, read: 25.6 μg standard BTG, B after 17 hrs. standing.

Where “and” joins values, the source holds several entries; their conditions need not be identical. Identical values can stand only once.

B1: ^125 I-BTG: radioiodinated BTG tracer of the radioimmunoassay (protein, UniProt P02775 48-128, looked up)
Beta-thromboglobulin: GKEESLDSDLYAELRCMCIKTTSGIHPKNIQSLEVIGKGTHCNQVEVIATLKDGRKICLDPDAPRIKKIVQKKLAGDESAD
modifications: Beta-thromboglobulin 125I label
notes: radioiodinated BTG tracer of the radioimmunoassay
For the molecule B1, the “% bound (of total ^125 I-BTG)” value was 45.7% under setting [1], 45.1% under setting [2], 1.5% under setting [3] and 1.5% under setting [4]. For the same molecule, the “Counts (in 49.9 sec)” value under setting [1] is 4617 counts and 4492 counts and 4581 counts and 4599 counts; the “Counts (in 49.9 sec)” value under setting [2] is 4584 counts and 4474 counts and 4503 counts and 4496 counts; the “Counts (in 49.9 sec)” value under setting [3] is 133 counts and 180 counts; the “Counts (in 49.9 sec)” value under setting [4] was 160 counts and 149 counts.

B2: platelet β thromboglobulin (protein, UniProt P02775 48-128, looked up)
Beta-thromboglobulin: GKEESLDSDLYAELRCMCIKTTSGIHPKNIQSLEVIGKGTHCNQVEVIATLKDGRKICLDPDAPRIKKIVQKKLAGDESAD
modifications: Beta-thromboglobulin
notes: standard BTG of known concentrations
For the molecule B2, the “% bound (of total ^125 I-BTG)” value reads like this: under setting [5], 32.3%; under setting [6], 31.3%; under setting [7], 27.2%; under setting [8], 27.3%; under setting [9], 22.0%; under setting [10], 20.9%. Further, the “% bound (of total ^125 I-BTG)” value under setting [11] stood at 15.1%; the “% bound (of total ^125 I-BTG)” value under setting [12] is 14.5%; the “% bound (of total ^125 I-BTG)” value under setting [13] was found to be 10.4%; the “% bound (of total ^125 I-BTG)” value under setting [14] turned out to be 9.9%; the “% bound (of total ^125 I-BTG)” value under setting [15] is 7.1%; the “% bound (of total ^125 I-BTG)” value under setting [16] is reported as 6.6%. Besides, the “% bound (of total ^125 I-BTG)” value under setting [17] is listed as 4.8%, the “% bound (of total ^125 I-BTG)” value under setting [18] is listed as 4.5%, the “% bound (of total ^125 I-BTG)” value under setting [19] came to 3.5% and the “% bound (of total ^125 I-BTG)” value under setting [20] was 3.3%. Also, the “Counts (in 49.9 sec)” value by setting is: under setting [5], 3061 counts and 3409 counts; under setting [6], 3110 counts and 3154 counts; under setting [7], 2657 counts and 2784 counts; under setting [8], 2059 counts and 2816 counts; under setting [9], 2117 counts and 2286 counts; under setting [10], 2059 counts and 2129 counts. Moreover, the “Counts (in 49.9 sec)” value by setting is: under setting [11], 1469 counts and 1552 counts; under setting [12], 1451 counts and 1447 counts; under setting [13], 1103 counts and 986 counts; under setting [14], 979 counts and 1001 counts; under setting [15], 706 counts and 721 counts; under setting [16], 650 counts and 665 counts. For the same molecule, the “Counts (in 49.9 sec)” value was 465 counts and 495 counts under setting [17]; 440 counts and 458 counts under setting [18]; 346 counts and 357 counts under setting [19]; 337 counts and 321 counts under setting [20].
